From patent US7700101B2, “Reagents and method for modulating Dkk-mediated interactions” (Wyeth, priority 2001, dated 2010)
pKd: −log10 of the molar value. Entries after “also recorded” stand apart in the source; their conditions may differ. Read-outs that look alike come from different tables or passages of the source.

What was measured:
[1] = target: T1, HBM (Homo sapiens, UniProt O75197, G171V); test: TCF-luciferase assay in HOB-03-CE6 cells, HBM; assay type: cell-based; settings: Wnt1, FIG. 14
T1 construct: Full length Zmax/LRP5 and HBM ORF cDNA; expressed in transfected cells; host or cells: HOB-03-CE6 osteoblastic cells; U2OS osteosarcoma cells; HEK293
Method: (§1) HOB-03-CE6 osteoblastic cells developed by Wyeth Ayerst (Philadelphia, Pa.) were seeded into 24-well plates at 150,000 cells per well in 1 ml of the growth media (D-MEM/F12 phenol red-free) containing 10% (v/v) heat-inactivated FBS, 1×penicillin streptomycin, and 1X Glutamax-1, and incubated overnight at 34° C. The following day, the cells were transfected using Lipofectamine 2000® (as described by the manufacturer, Invitrogen) in OptiMEM (Invitrogen) with 0.35 μg/well of LRP5, HBM, or control plasmid DNA (empty vector pcDNA3.1) and either Wnt1 or Wnt3 a plasmid DNA. […] All wells were transfected with 0.025 μg/well of CMV beta-galactosidase plasmid DNA and 0.35 μg/well 16X TCF(ASyluciferase reporter DNA (developed by Ramesh Bhat, Wyeth-Ayerst (Philadelphia, Pa.)). After 4 hours of incubation, the cells were rinsed and 1 ml of fresh growth media was added to each well. The cells were cultured overnight at 34° C., followed by a wash and a change of media. Cells were cultured for an additional 18-24 hours at 37° C. Cells were then lysed with 50 μl/well of 1X lysis buffer. The extracts were assayed for beta-galactosidase activity (Galacto Reaction Buffer Diluent & Light Emission Accelerator, Tropix) using 5 μl extract+50 μl beta-galactosidase diluent and luciferase activity (Luciferase Assay Reagent, Promega) using 20 μl extract.

[2] = target: T2, LRP5 (Homo sapiens, UniProt O75197); test: TCF-luciferase assay in HOB-03-CE6 cells, LRP5; assay type: cell-based
T2 construct: Site-directed mutants of LRP5 were generated in the full-length human LRP5 cDNA; expressed in transfected cells; host or cells: HOB-03-CE6 osteoblastic cells; U2OS osteosarcoma cells; HEK293
Method: as §1, with “DNA. Similar experiments were performed with LRP6 plasmid DNA (0.35 μg/well) or a control pEDdpc4 empty vector.” for “DNA.”

[3] = target: LRP6 (Homo sapiens, UniProt O75581); settings: cited from earlier work
[4] = tested on: endogenous LRP5/6; test: Cell-based TCF reporter high-throughput assay, endogenous LRP5/6; design: species or system human; settings: U2OS cells, no Wnt3a/Wnt1 transfection, FIG. 21
Description: To develop a high throughput assay, the TCF-luciferase assay described in Example 7 was modified utilizing low level expression of endogenous LRP5/6 in U2OS and HEK293 cells. […] Using U2OS (human osteosarcoma) and HEK293 (ATCC) cells, the TCF-luciferase and tk-Renilla reporter element constructs were co-transfected along with Wnt3a/1 and Dkk.

[5] = target: T1, HBM; test: Cell-based TCF reporter high-throughput assay, HBM cDNA; settings: U2OS cells, Wnt1 or Wnt3a/Wnt1 co-transfected, FIG. 20
Description: To develop a high throughput assay, the TCF-luciferase assay described in Example 7 was modified utilizing low level expression of endogenous LRP5/6 in U2OS and HEK293 cells. However, HOB-03-CE6 cells and any other cells which show a differential response to Dkk depending on whether LRP5, LRP6 or HBM are expressed. Using U2OS (human osteosarcoma) and HEK293 (ATCC) cells, the TCF-luciferase and tk-Renilla reporter element constructs were co-transfected along with Wnt3a/1 and Dkk. Wnt3a alone, by using endogenous LRP5/6, was able to stimulate TCF reporter gene activation. When Dkk, is co-transfected with Wnt3a/Wnt 1 and reporters (TCF-luci and tk-Renilla), DEkk represses reporter element activity. In addition, the TCF-luci signal is activated by Wnt3a/Wnt1 can be repressed by the addition of Dkk-enriched conditioned media to the cells containing Wnt3a/Wnt1 and reporters.
The Dkk-mediated repression of the reporter is dependent upon the concentration of transfected Dkk cDNA or on the amount of Dkk-conditioned media added. In addition, the Dkk-mediated reporter suppression can be altered by the co-transfection of LRP5, LRP6, and HBM cDNAs in the U2OS or HEK293 cells. In general, U2OS cells show greater sensitivity to Dkk-mediated reporter suppression than that in HEK-293 cells. […]

T2 sequence (O75197 32-1615): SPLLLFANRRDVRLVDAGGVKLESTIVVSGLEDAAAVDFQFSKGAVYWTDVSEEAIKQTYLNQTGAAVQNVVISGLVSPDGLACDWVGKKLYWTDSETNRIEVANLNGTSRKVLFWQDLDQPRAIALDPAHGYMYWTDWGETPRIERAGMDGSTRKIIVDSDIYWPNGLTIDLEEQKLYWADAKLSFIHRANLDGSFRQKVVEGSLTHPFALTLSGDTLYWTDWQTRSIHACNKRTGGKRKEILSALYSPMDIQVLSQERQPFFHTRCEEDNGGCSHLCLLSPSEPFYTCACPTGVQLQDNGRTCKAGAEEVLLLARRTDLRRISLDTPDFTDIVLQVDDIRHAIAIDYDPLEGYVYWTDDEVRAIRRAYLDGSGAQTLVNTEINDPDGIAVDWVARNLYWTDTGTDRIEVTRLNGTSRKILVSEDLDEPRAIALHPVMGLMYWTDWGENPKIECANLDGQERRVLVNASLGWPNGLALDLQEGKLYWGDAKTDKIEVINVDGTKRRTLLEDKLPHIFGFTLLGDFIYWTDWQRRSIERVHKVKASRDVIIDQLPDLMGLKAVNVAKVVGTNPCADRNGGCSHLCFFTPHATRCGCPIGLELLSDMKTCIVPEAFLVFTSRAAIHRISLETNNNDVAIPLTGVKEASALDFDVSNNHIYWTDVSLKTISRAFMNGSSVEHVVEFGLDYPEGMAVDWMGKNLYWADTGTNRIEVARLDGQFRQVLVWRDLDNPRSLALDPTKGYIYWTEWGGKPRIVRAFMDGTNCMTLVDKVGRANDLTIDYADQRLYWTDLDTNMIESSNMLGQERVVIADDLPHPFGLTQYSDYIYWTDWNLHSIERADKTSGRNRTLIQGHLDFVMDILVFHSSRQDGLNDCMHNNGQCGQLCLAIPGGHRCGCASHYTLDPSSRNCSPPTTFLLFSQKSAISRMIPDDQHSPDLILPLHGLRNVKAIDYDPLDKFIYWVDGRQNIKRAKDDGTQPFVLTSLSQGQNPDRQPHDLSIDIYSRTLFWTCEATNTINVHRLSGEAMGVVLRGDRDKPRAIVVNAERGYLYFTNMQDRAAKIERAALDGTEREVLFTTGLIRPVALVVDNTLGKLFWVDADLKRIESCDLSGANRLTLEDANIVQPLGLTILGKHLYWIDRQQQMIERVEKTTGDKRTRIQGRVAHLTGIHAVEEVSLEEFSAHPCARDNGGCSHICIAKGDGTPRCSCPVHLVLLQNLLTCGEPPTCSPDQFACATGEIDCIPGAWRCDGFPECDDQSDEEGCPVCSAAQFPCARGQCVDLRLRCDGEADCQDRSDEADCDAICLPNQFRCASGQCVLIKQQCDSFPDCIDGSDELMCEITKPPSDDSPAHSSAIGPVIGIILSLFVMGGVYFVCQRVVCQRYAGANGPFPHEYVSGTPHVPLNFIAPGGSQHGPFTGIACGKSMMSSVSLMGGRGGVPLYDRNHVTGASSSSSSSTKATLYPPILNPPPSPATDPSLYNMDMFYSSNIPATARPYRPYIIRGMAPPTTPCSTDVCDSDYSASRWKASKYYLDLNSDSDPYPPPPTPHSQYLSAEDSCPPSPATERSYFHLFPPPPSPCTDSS
T1 sequence (O75197 32-1615 G171V): as the sequence (O75197 32-1615) above, with G140V counted along it
Sequence of LRP6 (O75581 20-1613, species assumed): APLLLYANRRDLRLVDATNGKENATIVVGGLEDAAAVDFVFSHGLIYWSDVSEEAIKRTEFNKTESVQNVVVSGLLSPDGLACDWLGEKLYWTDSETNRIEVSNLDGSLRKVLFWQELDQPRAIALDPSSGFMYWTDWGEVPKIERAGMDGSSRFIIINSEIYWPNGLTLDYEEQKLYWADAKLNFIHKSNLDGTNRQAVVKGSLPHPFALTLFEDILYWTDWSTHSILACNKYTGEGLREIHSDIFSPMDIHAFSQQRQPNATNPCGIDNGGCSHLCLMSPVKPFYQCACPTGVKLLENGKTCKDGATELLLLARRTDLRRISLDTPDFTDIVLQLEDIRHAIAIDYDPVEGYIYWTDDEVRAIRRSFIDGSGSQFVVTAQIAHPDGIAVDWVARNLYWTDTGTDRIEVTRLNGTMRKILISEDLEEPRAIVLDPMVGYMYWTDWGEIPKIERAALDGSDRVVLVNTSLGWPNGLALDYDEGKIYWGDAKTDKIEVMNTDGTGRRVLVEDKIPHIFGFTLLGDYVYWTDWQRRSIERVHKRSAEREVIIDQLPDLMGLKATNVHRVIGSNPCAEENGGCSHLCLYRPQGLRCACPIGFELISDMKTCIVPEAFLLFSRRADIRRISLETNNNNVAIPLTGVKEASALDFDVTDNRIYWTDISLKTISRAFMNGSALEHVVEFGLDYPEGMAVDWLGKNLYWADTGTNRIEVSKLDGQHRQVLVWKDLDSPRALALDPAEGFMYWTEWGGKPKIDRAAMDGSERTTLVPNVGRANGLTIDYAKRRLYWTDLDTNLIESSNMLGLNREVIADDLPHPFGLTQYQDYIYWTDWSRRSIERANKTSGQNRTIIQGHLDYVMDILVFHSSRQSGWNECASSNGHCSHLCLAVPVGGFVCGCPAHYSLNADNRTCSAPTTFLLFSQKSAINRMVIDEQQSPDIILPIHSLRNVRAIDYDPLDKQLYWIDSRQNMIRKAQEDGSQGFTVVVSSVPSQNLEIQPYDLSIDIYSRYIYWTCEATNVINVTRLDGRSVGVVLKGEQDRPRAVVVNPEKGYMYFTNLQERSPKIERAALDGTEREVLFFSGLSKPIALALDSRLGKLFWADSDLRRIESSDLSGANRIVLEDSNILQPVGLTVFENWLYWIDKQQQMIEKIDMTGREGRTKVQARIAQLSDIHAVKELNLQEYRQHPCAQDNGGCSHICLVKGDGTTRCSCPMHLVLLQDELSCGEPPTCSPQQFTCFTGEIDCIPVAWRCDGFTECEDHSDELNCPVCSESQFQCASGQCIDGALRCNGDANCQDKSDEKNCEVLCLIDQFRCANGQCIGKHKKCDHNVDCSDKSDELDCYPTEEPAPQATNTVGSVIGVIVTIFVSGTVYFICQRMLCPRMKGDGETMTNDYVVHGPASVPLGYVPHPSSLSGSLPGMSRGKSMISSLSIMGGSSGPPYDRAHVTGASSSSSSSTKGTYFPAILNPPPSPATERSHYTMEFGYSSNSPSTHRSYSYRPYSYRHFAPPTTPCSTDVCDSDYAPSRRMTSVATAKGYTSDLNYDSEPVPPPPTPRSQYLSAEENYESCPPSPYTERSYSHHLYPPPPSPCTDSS

LRP5/Wnt3a mediated TCF-luciferase activity ([2]; Wnt3a, FIG. 15): able to antagonize LRP5/Wnt3a
Dkk-mediated repression of HBM signaling (TCF reporter) ([5]; listed as Dkk1): least
Substance: Dkk-1: Dickkopf-1 protein, antagonist of the Wnt pathway; expressed from human cDNA (RNA or plasmid)
HBM/Wnt1 mediated TCF-luciferase activity [1]: no effect; also recorded: had no effect on LRP5 or HBM mediated TCF-luciferase activity
LRP5/Wnt1 mediated TCF-luciferase activity ([2]; Wnt1, FIG. 14): significantly antagonized TCF-luciferase activity; also recorded: had no effect on LRP5 or HBM mediated TCF-luciferase activity
pKd ([3]; Bafico et al., 125I-labeled Dkk-1): 9.41
pKd ([3]; Mao et al., classical biochemical ligand-receptor studies): 9.47
modulation of TCF signal without Wnt DNA transfection [4]: can be modulated
modulation of TCF signal without Wnt DNA transfection ([4]; listed as Dkk1): can repress TCF-luci
Dkk-mediated repression of HBM signaling (TCF reporter) [5]: not efficiently inhibited; also recorded: little or no effect
